Measurements from article PMC6270943 (2014).

Target: T1, antisense peptide IPPKYW
T1 chain: IPPKYW
Assay: tryptophan fluorescence titration

- Kd: 19 µM
Binder: YGGFM [Met-enkephalin]
